Sequences and labels used below:
B1: Fission-yeast Wapl (natural protein, fission yeast, UniProt O94364 1-602, looked up)
chain: MKRGKCKEKDNGLKRISSESEVWNFLDVTVSELNKQKRSPGQTVSKRLHKKQRVVSNPDLSLPSSPVKQILRNGLQNSKYGSHKTGLERSASCSSIDASANHSSTTYREQRSYLMEEGLDTQPIVPREVSSGRELDSTNHTIGTERAFLIEEDVSEDDEIQMKSIHELRFAGEQQRIVDEIEYLVDGVTFSGNSSASRYLSLIGIAEKMFDNSFRLCLKSIRDVFLRIFEEIDPKDTLHTFLQIYIFATMANEMDCMSSLLDAYSNNVKLLLQTAITLEPQVPVSILAKSLPKSVKGAVQEFVIKAELTFSFSNESLASSDSISLAAIALMKTSSGVFAESELFTELINLLIEKSYPILKENDGSNNFLLHALCSSLEKFTDFQGSEKIQKVSQILSSKLQILIDEHNETNSPKIDDTVVHACSEKLLRTLIQTVNSNSDHALAVSKSEVPLFAYKILQKFSNFSSDDETTRELIILILGLLLGLVEESHEFIQTITHVEVSFGASALDVLISFYQKNESIVEISGYVVMILSHCFLNDPKAFAQLKPLISQFYESLHKFKNFHLKLKEELMMMGSNGLAIVSIIDELHKSLQDYLRSDLVK
notes: Wapl, cohesin subunit of fission yeast; GST was removed by protease; source: E. coli, purified (glutathione sepharose, heparin chromatography)
B2: Fission-yeast Psc3 (natural protein, fission yeast, UniProt O13816 1-962, looked up)
chain: MSESVTTGSDDDGGDRESSPVMLSQSFDPMSSSSNSSSEENSDDDYEKTISSKKRHPRPNSKGVNVKRSRRNAIVEEDPQEEIFNNLFAFLLDQKVDTMDIAVSWFADYAKDNQSALANLINFILKCCGCNRAINVFDVQDQDSASATLSQIQLSVERTSTRDYPLNSKNLKFRNFRKRLTGLLSNFVSQLSIRNYLYNSTVFEDIMSWVVAMSSSTMRPIRHTATVFCLNIMTFLCEKSKELLNEHAIATKQLEKEEKRSRVNRNRINELNNSLGEIVKQQDTLTTYLNDYFDSVFVHRYRDVEPKIRVDCLQELGVWINTVPSIFFSGSYLRYLGWMLSDINTTVRLTVVKVLRKFFETDSFIGGLRHFSSRFKERILEMSCVDADIGVRVASIRLCNAMRTCGFLENSEILKVLKLILDINPRVQREAVLFLCKVVDESVNEKIDLWGEEDYILKAFSQTSLTTFSVHWIKFSQMCKLLEEVRLSYQSSFDYDTLLRIFQKNGNFITPITQALLNACEIDSIYQSWEDISNFVLFDNYTSTLKDPIDSILSFCKLNDFQESILLQLLSASIQTVCNNNFITPKTVHNKQAAETTNDQNKDKDLLYLNLLPYINSITERNSASPTLLHDSLRLLFSMDLTEMTDPQLSRHFELLINNLKKFFLTNNDLQIIQGCTILFLRLDSIPALKEDLKLLVTDICDQTVTEFLKNFGSFNIQDAVITKDEFVIFEACLTRIEGCTSLKDFSDYPEFDIIYERLVSLLSRVPNSYEDTLKFSAINTLQSLLFWFFLRKDNPADEEKKKDDETKVFNCLINIMNNDSSKILQLQAARTFLETVIMKEGVKASHYNDDNRVSEEHNFLKPQFLDALLKILEGWLYTYAKVGQFPFKRLTQASSPHTQISLDKNPLNRRLLEHVCCDLTSKLLIVVSLSNTITPEFSQQFCELRGHYGPKLSAIVDEFLN
notes: Psc3 (Scc3), subunit of fission-yeast cohesin, as a separate protein; source: prepared and purified as described (Murayama and Uhlmann, 2014)
B3: Fission-yeast Pds5 (natural protein, fission yeast, UniProt Q9HFF5 1-1205, looked up)
chain: MIKLQFQRNIVPTHDNPLTTSEILKRLRDLLGELTSLSQDTIDRDSVLPVARSLVNNNLLHHKDKGIRSYTLCCIVELLRLCAPDAPFTLSQLEDIFQVILKILSGLMNQESTYYPQIYEILESLSNVKSAVLIVDLPNAEEFLVNIFRLFFDLARKGTTKNVEFYMLDIINQLINEINTIPAAALNILFAQLISGKGVRQTIGSSDSTNHGPAFQLARNIFHDSADRLQRYVCQYFSDIIFDSRDSLSDSMTTPEFIFSHNLVLQLWKYAPTTLLNIIPQFENELQAEQTSVRLVAIETVGLMLQDNAIWSDYPRVWSAFCGRLNDKSVACRIKCIEVASNALQNSLATSEIIENVVQMLQSKLADTDEKVRVATLKTIEQLTFETFKMQFSVQALKLMGDRLRDRKLNVRLQAIRTLSQIYNRAYQDLIDGVEYSIQMFSWIPSSLLEVFYVNDETTNAAVEICMAELVLQYLSSDTQTRLNRLFLSIKYFSEKAMRVFILLLQRQVKYSELLNYYIECCKNYNGGVMDNDEESITNKLKKVIDIISSKSSNPTLTEATFRKFAELNDRQSYKMLLQTFSIKSEYQVVLKSIKYLFKRVSETLSTASLECFRIFVYRSALFAFNKSNVHEIIQLLNEPVKYHNFLKPSEALLQHLPLIHPNIYGEVVIEVENIIVSSGIESDPKVIKALSQFSKRKKNFSIQTTTAEILRKLCLHGTQEQAKQAATIIAITETKEFKLDMITNIVENLEYNGGLPVRLMTLGQLFLYTLEEVEKVADQVTEFLVKKVIQRFPEKYDDTHNDEEWCTYEKLDNLTMCKVLAIRVLVNRLRAAAGGTEALNIGAPIIKLLKVLLMADGELSPFKNTPKISRAYLRLTASKYFLKLCSIPFYAEHIDFSSYVQISLLCQDENFDVRNLFLTKLQKQLQLKKLPISYYPLLFLTAVDPEEEIKTKASIWIRSQVAFFQKTHDFTMEYVATYLIHLLSHHPDISSIESENSLDFIAYIRFYVDTVVNSENVPIVFHLMQRIKQSYDVIEDGNNYIYVLSDMAQKILQVKSQNFGWSLTTYPKQIKLPYEILRPIPSIDEKKRIFNKIFITPKMESQIEHAIRTPVSSFAKQTTNKHANLKQKKTHSSKSDKKSSRRRKNEKRRKLNEQNPNIRNVPERSSSRFQGIRINYSEAPSSSEEISEEEEEISEEDFDEIEDL
notes: Pds5, cohesin subunit of fission yeast; Protein A was removed by protease; source: overexpressed in budding yeast, purified (IgG-agarose, Capto Q, gel filtration)

Common to all, as to settings: both partners purified
The target of test [1] is B3. The test can be described thus: SEC; purified Pds5 and Wapl mixed in equimolar amounts and analysed by gel filtration; fractions by SDS-PAGE and silver staining. For orientation: Size exclusion chromatography separates by hydrodynamic size, large species first.
The target in test [2] is T1, Fission-yeast cohesin trimer (Psm1, Psm3 and Rad21) (fission yeast, UniProt O94383 1-1228; O42649 1-1194; P30776 1-628).
T1 construct: Psm1 (Smc1), SMC subunit of fission-yeast cohesin; Psm3 (Smc3), SMC subunit of fission-yeast cohesin; Rad21, kleisin subunit of fission-yeast cohesin; Lacks Psc3; source: recombinant, purified (Murayama and Uhlmann, 2014); copies: + +
T1 sequence (O94383 whole entry, chain 1 of 3): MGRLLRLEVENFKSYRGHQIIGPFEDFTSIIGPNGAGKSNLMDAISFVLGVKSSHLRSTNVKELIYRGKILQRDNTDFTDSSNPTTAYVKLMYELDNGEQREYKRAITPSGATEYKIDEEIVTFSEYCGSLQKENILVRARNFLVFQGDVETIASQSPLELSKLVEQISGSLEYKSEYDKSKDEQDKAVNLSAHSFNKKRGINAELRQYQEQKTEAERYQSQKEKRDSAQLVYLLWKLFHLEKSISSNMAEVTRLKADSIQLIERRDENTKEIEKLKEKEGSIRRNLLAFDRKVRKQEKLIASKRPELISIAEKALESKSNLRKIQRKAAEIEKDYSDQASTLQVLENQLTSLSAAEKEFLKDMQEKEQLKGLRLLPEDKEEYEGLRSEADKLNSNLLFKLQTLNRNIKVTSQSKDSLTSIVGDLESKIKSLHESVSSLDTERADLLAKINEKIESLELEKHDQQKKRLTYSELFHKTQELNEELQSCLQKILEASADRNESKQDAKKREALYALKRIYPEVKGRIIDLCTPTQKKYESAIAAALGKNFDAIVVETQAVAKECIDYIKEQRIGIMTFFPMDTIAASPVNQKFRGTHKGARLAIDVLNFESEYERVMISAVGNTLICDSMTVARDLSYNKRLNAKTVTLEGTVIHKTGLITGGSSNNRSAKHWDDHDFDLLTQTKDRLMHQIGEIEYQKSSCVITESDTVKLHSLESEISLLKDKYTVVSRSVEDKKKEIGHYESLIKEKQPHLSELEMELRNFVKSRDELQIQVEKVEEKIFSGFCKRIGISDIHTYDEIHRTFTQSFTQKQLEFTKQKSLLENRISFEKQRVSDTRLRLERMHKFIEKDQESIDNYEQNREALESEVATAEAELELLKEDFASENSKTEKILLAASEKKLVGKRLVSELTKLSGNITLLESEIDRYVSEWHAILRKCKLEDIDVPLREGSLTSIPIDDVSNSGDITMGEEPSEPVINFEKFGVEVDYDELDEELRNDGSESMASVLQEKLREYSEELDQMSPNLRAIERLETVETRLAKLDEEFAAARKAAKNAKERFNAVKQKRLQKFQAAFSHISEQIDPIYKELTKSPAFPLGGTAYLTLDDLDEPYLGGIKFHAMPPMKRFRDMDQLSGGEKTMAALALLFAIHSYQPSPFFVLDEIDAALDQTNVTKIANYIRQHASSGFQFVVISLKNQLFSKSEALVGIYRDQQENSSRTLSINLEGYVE
T1 sequence (O42649 whole entry, chain 2 of 3): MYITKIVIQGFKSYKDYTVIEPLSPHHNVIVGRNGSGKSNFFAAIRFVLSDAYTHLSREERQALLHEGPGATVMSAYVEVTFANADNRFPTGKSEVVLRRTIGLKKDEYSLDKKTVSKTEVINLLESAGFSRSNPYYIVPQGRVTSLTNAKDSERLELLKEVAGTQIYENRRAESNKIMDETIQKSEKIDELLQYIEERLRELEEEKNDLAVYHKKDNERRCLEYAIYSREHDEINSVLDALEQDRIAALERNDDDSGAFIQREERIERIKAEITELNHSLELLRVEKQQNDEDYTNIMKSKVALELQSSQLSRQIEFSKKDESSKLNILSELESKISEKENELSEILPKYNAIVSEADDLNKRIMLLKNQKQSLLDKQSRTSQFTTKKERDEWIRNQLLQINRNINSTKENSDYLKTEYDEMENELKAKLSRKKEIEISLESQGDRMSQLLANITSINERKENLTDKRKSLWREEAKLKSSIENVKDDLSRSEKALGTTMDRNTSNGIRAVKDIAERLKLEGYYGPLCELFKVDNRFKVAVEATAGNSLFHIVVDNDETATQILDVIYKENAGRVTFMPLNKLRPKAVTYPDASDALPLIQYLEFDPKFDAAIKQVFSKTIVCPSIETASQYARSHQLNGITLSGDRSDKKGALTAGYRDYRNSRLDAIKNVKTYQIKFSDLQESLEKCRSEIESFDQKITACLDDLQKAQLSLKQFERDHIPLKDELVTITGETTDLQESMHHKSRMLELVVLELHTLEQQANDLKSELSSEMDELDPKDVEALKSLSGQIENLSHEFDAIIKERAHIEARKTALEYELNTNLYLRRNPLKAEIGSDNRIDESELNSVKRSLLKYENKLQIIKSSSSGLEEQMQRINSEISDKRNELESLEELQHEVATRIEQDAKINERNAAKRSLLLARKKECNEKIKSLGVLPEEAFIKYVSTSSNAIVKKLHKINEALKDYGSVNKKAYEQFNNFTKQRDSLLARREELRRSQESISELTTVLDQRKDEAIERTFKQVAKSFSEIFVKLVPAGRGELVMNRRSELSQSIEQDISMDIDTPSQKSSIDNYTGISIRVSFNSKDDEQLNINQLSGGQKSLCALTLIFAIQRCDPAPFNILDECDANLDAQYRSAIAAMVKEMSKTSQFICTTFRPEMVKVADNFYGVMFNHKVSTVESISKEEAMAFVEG
T1 sequence (P30776 whole entry, chain 3 of 3): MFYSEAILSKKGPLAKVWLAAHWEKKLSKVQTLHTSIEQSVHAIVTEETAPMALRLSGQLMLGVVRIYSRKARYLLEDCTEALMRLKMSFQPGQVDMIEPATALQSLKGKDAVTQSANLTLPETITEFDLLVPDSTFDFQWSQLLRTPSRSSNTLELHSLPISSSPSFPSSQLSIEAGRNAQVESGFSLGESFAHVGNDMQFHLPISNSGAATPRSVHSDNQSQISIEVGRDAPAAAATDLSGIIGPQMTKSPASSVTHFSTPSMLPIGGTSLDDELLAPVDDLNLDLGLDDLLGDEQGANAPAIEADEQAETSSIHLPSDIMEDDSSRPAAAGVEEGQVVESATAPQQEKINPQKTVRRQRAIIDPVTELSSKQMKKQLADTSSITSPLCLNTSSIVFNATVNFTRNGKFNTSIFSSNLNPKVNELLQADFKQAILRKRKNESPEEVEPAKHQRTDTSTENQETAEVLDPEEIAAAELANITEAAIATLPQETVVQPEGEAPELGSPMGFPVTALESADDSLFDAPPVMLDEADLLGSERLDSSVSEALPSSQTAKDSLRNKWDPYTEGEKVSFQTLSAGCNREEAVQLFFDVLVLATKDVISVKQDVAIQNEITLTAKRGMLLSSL
Briefly: co-IP; recombinant cohesin tetramer or trimer immunoprecipitated via Rad21-HA with Pds5 and Wapl both added; bound proteins by western blotting.

The target of test [3] is T2, Fission-yeast cohesin tetramer (Psm1, Psm3, Rad21 and Psc3) (fission yeast, UniProt O94383 1-1228; O42649 1-1194; P30776 1-628; O13816 1-962).
T2 construct: Psm1 (Smc1), SMC subunit of fission-yeast cohesin; Psm3 (Smc3), SMC subunit of fission-yeast cohesin; Rad21, kleisin subunit of fission-yeast cohesin; Psc3 (Scc3), subunit of fission-yeast cohesin; also called "4"; source: recombinant, purified as described (Murayama and Uhlmann, 2014); not shown: Pk, C-terminal, kept; copies: + + +
T2 sequence (O94383 whole entry, chain 1 of 3): as the sequence (O94383 whole entry, chain 1 of 3) above
T2 sequence (O42649 whole entry, chain 2 of 3): as the sequence (O42649 whole entry, chain 2 of 3) above
T2 sequence (P30776 whole entry, chain 3 of 3): as the sequence (P30776 whole entry, chain 3 of 3) above
The test is described as above.

Test [4] concerns the target T3, Mis4-Ssl3 cohesin loader (fission yeast, UniProt Q09725 1-1587; O94459 1-559).
T3 construct: Mis4, subunit of the fission-yeast cohesin loader; Ssl3, subunit of the fission-yeast cohesin loader; also called MS; source: prepared and purified as described (Murayama and Uhlmann, 2014)
Briefly: co-IP; Psc3 immunoprecipitated; co-precipitation of the Psm1-Psm3 hinge and of the cohesin loader analysed.

The text below walks through data of paper PMC4701713, “DNA Entry into and Exit out of the Cohesin Ring by an Interlocking Gate Mechanism” (Cell, 2015).

In the case of B1, the binding result in test [1], in test [2] and in test [3] was “binds” throughout.

Turning to B2, the binding result in test [4] is recorded as “binds”.

Consider B3, for which the binding result in test [2] and in test [3] was “binds” throughout.
